In test [1] the target is human PD-1 on Jurkat T effector cells (human) (UniProt Q15116).
The target of test [2] is recombinant Human Fc gamma RI/CD64 Protein (R&D systems, 1257-FC-050) (human) (UniProt P12314). Briefly: ELISA: antibody coated on the plate (2.5 ug/ml), His-tagged recombinant human Fc gamma RI/CD64 titrated in solution (x-axis), anti-His-HRP/TMB, 450 nm. A general note: In an ELISA, binding on a coated surface is turned into a signal by an enzyme label.
Test [3] addresses recombinant biotinylated human FcRn (human) (UniProt P55899). Briefly: AlphaLISA competition at pH 6; competitor: human IgG on acceptor beads. (In Alpha technology, singlet oxygen from a donor bead excites a nearby acceptor bead.)
Test [4] addresses recombinant Human Fc gamma RIIA/CD32a (H167) Protein (R&D systems, 9595-CD-050) (human) (UniProt P12318). Briefly: ELISA; antibody coated, receptor titrated, anti-His-HRP.
The target of test [5] is recombinant Human Fc gamma RI/CD64 Protein (R&D systems, 1257-FC-050) (human) (UniProt P12314). The description is as above.
Test [6] concerns the target recombinant Human Fc gamma RIIB/CD32b Avi-tag Protein (R&D systems, AVI1875-050) (human) (UniProt P31994). The test is described as above.
Test [7] addresses recombinant Human Fc gamma RIIIA/CD16a Protein (R&D systems, 4325-FC-050) (human) (UniProt P08637). The description is as above.
Test [8] has as its target recombinant biotinylated human FcRn (human) (UniProt P55899). Briefly: FcRn competition AlphaLISA at pH 6: test antibody titrated (x-axis) against human IgG-coated acceptor beads (reference IgG) for biotinylated human FcRn on streptavidin donor beads; loss of signal.
Test [9] addresses human IL-18BP-His (human) (UniProt O95998). Briefly: AlphaLISA of free IL-18BP after incubation with IL-18BP-His.
The target is the same in test [10]. Briefly: AlphaLISA of free (unbound) IL-18BP: immunocytokine titrated (x-axis) and pre-incubated with human IL-18BP-His; anti-IL-18BP acceptor beads, biotinylated anti-IL-18BP antibody, streptavidin donor beads; the signal falls as IL-18BP is bound.
Test [11] addresses recombinant Human Fc gamma RIIIA/CD16a Protein (R&D systems, 4325-FC-050) (human) (UniProt P08637). Briefly: ELISA; immunocytokine coated, receptor titrated, anti-His-HRP.
In test [12] the target is T1, IL-18 receptor (IL-18Rα/IL-18Rβ) on cells (HEK-Blue IL18R reporter cells, NK-92, KG-1) (human) (UniProt Q13478).
T1 sequence (looked up) 1: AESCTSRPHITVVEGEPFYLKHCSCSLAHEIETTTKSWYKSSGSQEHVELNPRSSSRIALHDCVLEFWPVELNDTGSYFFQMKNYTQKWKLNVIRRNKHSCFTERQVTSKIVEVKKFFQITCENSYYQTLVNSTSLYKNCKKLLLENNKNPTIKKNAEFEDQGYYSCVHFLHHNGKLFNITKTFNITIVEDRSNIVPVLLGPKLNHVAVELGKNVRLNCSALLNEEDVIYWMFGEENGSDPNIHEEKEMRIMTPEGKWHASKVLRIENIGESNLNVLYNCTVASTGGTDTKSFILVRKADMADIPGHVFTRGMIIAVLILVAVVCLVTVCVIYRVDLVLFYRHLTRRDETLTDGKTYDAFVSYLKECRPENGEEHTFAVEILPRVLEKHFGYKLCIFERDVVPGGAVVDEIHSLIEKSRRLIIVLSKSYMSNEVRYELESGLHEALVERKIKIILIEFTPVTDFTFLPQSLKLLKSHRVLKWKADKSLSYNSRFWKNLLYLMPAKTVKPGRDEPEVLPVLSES
T1 sequence (looked up) 2: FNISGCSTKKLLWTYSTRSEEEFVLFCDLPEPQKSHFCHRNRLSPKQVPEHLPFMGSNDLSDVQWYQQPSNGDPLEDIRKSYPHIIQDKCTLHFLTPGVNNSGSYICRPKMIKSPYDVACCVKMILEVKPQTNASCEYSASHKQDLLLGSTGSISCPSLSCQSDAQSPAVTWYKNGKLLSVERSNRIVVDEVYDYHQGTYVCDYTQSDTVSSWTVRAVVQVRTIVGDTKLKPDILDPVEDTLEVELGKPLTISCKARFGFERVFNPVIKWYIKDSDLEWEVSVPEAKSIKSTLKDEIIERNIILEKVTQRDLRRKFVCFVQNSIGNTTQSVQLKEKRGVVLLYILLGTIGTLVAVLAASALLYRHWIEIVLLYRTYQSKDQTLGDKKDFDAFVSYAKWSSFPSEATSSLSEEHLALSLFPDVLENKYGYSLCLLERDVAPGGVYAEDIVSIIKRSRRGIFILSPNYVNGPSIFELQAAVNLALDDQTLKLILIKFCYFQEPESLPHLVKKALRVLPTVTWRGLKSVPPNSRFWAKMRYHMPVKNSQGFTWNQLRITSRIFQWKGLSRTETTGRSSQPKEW
Briefly: cell-based or functional assay.

For test [13], the target named is human PD-1 on Jurkat T effector cells (human) (UniProt Q15116). The source holds these as a separate data set.
Test [14] has as its target recombinant Human Fc gamma RI/CD64 Protein (R&D systems, 1257-FC-050) (human) (UniProt P12314). Briefly: ELISA: immunocytokine coated on the plate (2.5 ug/ml), His-tagged recombinant human Fc gamma RI/CD64 titrated in solution (x-axis), anti-His-HRP/TMB, 450 nm.
The target in test [15] is recombinant Human Fc gamma RIIA/CD32a (H167) Protein (R&D systems, 9595-CD-050) (human) (UniProt P12318). Briefly: ELISA; immunocytokine coated, receptor titrated, anti-His-HRP.
Chain of recombinant Human Fc gamma RIIA/CD32a (H167) Protein (R&D systems, 9595-CD-050) (human) (P12318 36-218 limits assumed): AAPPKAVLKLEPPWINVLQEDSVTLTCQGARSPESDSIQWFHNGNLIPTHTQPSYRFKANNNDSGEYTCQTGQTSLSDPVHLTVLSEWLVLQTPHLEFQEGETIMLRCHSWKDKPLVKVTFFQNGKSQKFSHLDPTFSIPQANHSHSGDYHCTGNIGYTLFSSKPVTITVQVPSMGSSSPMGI
Test [16] addresses recombinant Human Fc gamma RI/CD64 Protein (R&D systems, 1257-FC-050) (human) (UniProt P12314). The test is described as above.
For test [17], the target named is recombinant Human Fc gamma RIIB/CD32b Avi-tag Protein (R&D systems, AVI1875-050) (human) (UniProt P31994). The test is described as above.
Chain of recombinant Human Fc gamma RIIB/CD32b Avi-tag Protein (R&D systems, AVI1875-050) (human) (P31994 46-217 limits assumed): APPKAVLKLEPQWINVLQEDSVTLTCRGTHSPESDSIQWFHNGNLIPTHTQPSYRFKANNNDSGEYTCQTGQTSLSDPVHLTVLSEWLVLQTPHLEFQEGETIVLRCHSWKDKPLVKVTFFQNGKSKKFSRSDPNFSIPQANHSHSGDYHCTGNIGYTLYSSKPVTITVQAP

Where two headings read alike, the source gives them in different places.

Chain of recombinant Human Fc gamma RIIIA/CD16a Protein (R&D systems, 4325-FC-050) (human) (P08637 17-208 limits assumed): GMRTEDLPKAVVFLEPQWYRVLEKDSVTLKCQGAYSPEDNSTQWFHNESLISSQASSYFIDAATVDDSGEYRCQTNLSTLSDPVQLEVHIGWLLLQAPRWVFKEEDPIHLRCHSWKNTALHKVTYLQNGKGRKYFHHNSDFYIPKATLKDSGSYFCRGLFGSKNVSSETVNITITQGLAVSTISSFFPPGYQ
Chain of recombinant Human Fc gamma RI/CD64 Protein (R&D systems, 1257-FC-050) (human) (P12314 16-288 limits assumed): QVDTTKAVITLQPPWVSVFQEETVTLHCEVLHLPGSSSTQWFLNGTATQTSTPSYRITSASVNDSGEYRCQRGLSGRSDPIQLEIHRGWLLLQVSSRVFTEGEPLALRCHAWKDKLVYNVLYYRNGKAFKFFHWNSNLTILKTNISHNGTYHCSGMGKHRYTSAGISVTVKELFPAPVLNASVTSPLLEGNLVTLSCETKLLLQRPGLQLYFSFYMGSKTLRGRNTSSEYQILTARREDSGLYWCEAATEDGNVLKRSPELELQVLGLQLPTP
Chain of recombinant biotinylated human FcRn (human) (P55899 24-297 limits assumed, form in doubt, chain 1 of 2): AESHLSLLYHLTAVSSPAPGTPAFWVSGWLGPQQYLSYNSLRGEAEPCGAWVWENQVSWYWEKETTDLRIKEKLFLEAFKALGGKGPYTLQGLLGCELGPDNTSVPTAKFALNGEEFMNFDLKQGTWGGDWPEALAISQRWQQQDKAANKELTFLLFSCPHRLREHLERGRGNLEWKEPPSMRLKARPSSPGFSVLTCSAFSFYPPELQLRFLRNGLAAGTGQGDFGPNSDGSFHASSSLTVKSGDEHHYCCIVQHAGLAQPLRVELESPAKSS
Chain of recombinant biotinylated human FcRn (human) (chain, as listed by the source limits assumed, form in doubt, chain 2 of 2): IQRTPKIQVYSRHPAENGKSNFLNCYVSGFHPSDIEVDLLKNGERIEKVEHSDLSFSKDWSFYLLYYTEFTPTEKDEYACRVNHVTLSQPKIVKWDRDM
Chain of human PD-1 on Jurkat T effector cells (human) (Q15116 25-288 limits assumed): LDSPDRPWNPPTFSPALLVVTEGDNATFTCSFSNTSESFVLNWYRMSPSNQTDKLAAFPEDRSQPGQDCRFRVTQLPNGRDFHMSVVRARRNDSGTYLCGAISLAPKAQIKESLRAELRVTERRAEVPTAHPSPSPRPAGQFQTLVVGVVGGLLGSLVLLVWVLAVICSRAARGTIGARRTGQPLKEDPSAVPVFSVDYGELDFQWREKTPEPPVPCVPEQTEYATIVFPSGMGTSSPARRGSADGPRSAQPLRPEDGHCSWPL
Chain of human IL-18BP-His (human) (O95998 31-194 limits assumed): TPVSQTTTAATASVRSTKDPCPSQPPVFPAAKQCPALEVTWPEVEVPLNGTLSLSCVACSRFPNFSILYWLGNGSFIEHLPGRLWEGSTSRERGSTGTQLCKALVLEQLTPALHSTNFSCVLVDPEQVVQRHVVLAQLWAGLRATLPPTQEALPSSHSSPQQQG
Chain of LZM-009 (antibody) (VH): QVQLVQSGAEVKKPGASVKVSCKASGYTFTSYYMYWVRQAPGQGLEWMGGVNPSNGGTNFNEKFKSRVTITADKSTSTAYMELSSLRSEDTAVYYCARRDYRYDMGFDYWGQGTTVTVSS
Chain of LZM-009 (antibody) (VL): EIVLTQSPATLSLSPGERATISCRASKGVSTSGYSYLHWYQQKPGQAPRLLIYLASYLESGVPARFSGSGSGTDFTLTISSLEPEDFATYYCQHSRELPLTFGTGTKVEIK

Turning to LZM-009 (antibody), in test [1], the EC50 (read off the curve), NFAT-RE luciferase signal (PD-1/PD-L1 Blockade Bioassay) came to 2 nM. Besides, the EC50 (read off the curve) (as a rule, the concentration needed to bring the measured effect to its halfway point) in test [2] is 0.2 nM. For the same substance, the Kd (commonly the concentration at which binding is half-saturated) worked out at 6 nM in test [3]; 1350 nM in [4]; 0.315 nM in [5]; 2630 nM in [6]; 1710 nM in test [7]. For the same substance, the IC50 (read off the curve) in [8] was 5 nM.
“Composition C (Trastuzumab/Herceptin conjugated to IL-18 polypeptide of SEQ ID NO: 30)” displayed a Kd in test [9] of 10.5 nM. In test [10], this substance registered an IC50 (read off the curve) of 10 nM. Moreover, the Kd in test [11] was found to be 3300 nM. In test [12], the EC50, IFNγ secretion, NK92 cells amounted to 0.027 nM; the EC50, IFNγ secretion, PD-1 positive KG-1 cells was found to be 0.0096 nM; the EC50, IFNγ secretion, parental KG-1 cells turned out to be 0.0166 nM.
In the case of “Composition A (LZM-009 conjugated to IL-18 polypeptide of SEQ ID NO: 30) (from UniProt Q14116 37-193)”, in test [13], the EC50 (read off the curve), NFAT-RE luciferase signal (PD-1/PD-L1 Blockade Bioassay) came out at 3 nM. Besides, the EC50 (read off the curve) in [14] is 0.3 nM. In addition, the Kd in test [15] was 1890 nM; in test [16], 0.25 nM; in [17], 436 nM; in test [11] it was 598 nM. The substance further registered an EC50, IFNγ secretion, NK92 cells in test [12] of 0.073 nM. In addition, the EC50, IFNγ secretion, PD-1 positive KG-1 cells in test [12] is 0.0012 nM. In test [12], the EC50, IFNγ secretion, parental KG-1 cells was 0.011 nM.
